Experiment [1] addresses T1, membrane-bound leucine zipper (EE12RR345L).
T1 construct: Expressed on the surface of the transduced cell; not shown: spacer, transmembrane and any intracellular part of the construct of this experiment are not specified
The experiment in a line: both co-transduced into the same cell; affinity tag detected on the cell surface by flow cytometry. On the technique in general: A flow cytometer gives signals particle by particle.

The target in experiment [2] is T2, leucine zipper-based CAR (ZipR-CAR), e.g. EE12RR345L:CD28zeta.
T2 construct: Used where the text speaks of 'the ZipR-CAR' without naming the spacer; Expressed on T cells; also called leucine zipper receptor-based CAR; EE-CAR
The experiment in a line: co-expression in T cells (FIG. 8).

Where no end group is shown, it is not given here.

B1: RR12EE345L leucine zipper with a linked affinity tag (peptide, not shown: small tags and cut ends)
chain: LEIRAAFLRQRNTALRTEVAELEQEVQRLENEVSQYETRYGPLGGGK
modifications: not fully specified (N-terminus)
notes: Secreted tagged zipper of the two-vector sorting system
Consider B1, for which the binding result in experiment [1] was “binds”.

B2: IL-3 zipperkine (IL-3 cytokine with C-terminal FLAG-tag and RR12EE345L leucine zipper) (ligand)
chain: ASISGRDTHRLTRTLNCSSIVKEIIGKLPEPELKTDDEGPSLRNKSFRRVNLSKFVESQGEVDPEDRYVIKSNLQKLNCCLPTSANDSALPGVFIRDLDDFRKKLRFYMVHLNDLETVLTSRPPQPASGSVSPNRGTVECGSGDYKDDDDKLEIRAAFLRQRNTALRTEVAELEQEVQRLENEVSQYETRYGPLGGGK
As to B2, the binding result in experiment [2] is on record as “binds”.

For the origin of these results see patent publication US20210171601A1 (Memorial Sloan Kettering, published 2021).
